Reference: patent publication US20140004122A1, “METHODS FOR TREATING OR PREVENTING CHOLESTEROL RELATED DISORDERS” (AMGEN INC., priority 2011, published 2014)

How the values were obtained:
[1] = tested on: hypercholesterolemic subjects unable to tolerate an effective dose of an HMG-CoA reductase inhibitor; assay: 12 week study vs ezetimibe in statin-intolerant patients (Example 23); assay type: in vivo, human; settings: preliminary
Description: It is planned to enroll 150 subjects. […] Randomization will be stratified by screening LDL-C level (<130 mg/dL [3.4 mmol/L] vs≧130 mg/dL) and statin use at baseline (yes vs no). Randomization should occur within 5-10 days of the screening LDL-C evaluation used to determine eligibility. Monoclonal antibody, 21B12, and placebo will be blinded. Ezetimibe is not blinded. Study visits are at weeks 2, 4, 8, and 12. […] The end-of-study visit and the last evaluation of lipids is at week 12.
Males and females, ≧18 to ≦75 years of age, are eligible for this study. Subject must have tried at least 1 statin and have been unable to tolerate any dose or an increase in statin dose above the following total weekly maximum doses due to myalgia or myopathy: atorvastatin ≦70 mg, simvastatin ≦140 mg, pravastatin ≦140 mg, rosuvastatin ≦35 mg, lovastatin ≦140 mg, fluvastatin ≦280 mg. For unlisted statins, the maximal total weekly dose should not exceed 7 times the smallest available tablet size. Symptoms must have resolved when statin was discontinued or the dose reduced. If receiving statin (not exceeding the maximal dose defined above), bile-acid sequestering resin, and/or stanol therapy, the dose(s) must be stable for at least 4 weeks prior to LDL-C screening. If the subject is on ezetimibe at start of screening, ezetimibe must be discontinued for ≧4 weeks before LDL-C screening. Depending on their risk category (based on NCEP ATP III treatment goals) subjects must meet the following fasting LDL-C (by central laboratory) criteria at screening: ≧100 mg/dL (2.6 mmol/L) for subjects with diagnosed coronary heart disease (CHD) or CHD risk equivalent; ≧130 mg/dL (3.4 mmol/L) for subjects without diagnosed CHD or risk equivalent and 2 or more risk factors; ≧160 mg/dL (4.1 mmol/L) for subjects without diagnosed CHD or risk equivalent and with 1 or no risk factors. Fasting triglycerides must be ≦400 mg/dL (4.5 mmol/L) as determined by the central laboratory analysis at screening.

[2] = tested on: subjects with hypercholesterolemia on a statin; assay: 12 week dose-ranging study in combination with statin (Example 25); assay type: in vivo, human; settings: preliminary
Description: Randomization will be stratified by screening LDL-C level (<130 mg/dL [3.4 mmol/L] vs≧130 mg/dL) and ezetimibe use at baseline (yes vs no). Randomization should occur within 5-10 days of the screening LDL-C evaluation used to determine eligibility. Study visits are every 2 weeks, irrespective whether the subject receives Q2W SC or Q4W treatment. […] The end-of-study visit and the last estimation of lipids is at week 12 for subjects on Q4W IP schedule and week 14 for subjects on Q2W IP schedule.
Males and females, ≧18 to ≦80 years of age, are eligible for this study. For enrollment, subjects must be on a statin, with or without ezetimibe, with stable dose(s) for at least 4 weeks before LDL-C screening and not requiring uptitration. Fasting LDL-C at screening must be ≧85 mg/dL (2.2 mmol/L). Enrollment of subjects with screening fasting LDL-C between ≧85 mg/dL (2.2 mmol/L) and <100 mg/dL (2.6 mmol/L) will be limited to no more than approximately 20% of total planned enrollment. Fasting triglycerides must be ≦400 mg/dL (4.5 mmol/L) as determined by the central laboratory analysis at screening.

[3] = tested on: patients from four studies described in Examples 22-25; assay: Aggregate data of the studies of Examples 22-25; assay type: in vivo, human
[4] = Pharmacokinetics in cynomolgus monkeys; assay type: in vivo, cynomolgus monkey; settings: 0.5 mg/kg single SC
Description: Antibody concentrations in serum were determined using an enzyme-linked immunosorbent assay (ELISA) with an assay range of 34.4 to 3000 ng/mL (34.4 ng/mL being the lower limit of quantitation [LLOQ]).
Non-compartmental analysis (NCA) was performed on the serum concentrations using the pre-determined nominal time points for each subject using Watson® LIMS, version 7.0.0.01 (Thermo Scientific, Waltham, Mass.). Data points for estimating the terminal elimination rate constants and half-lives were chosen by visual inspection of the concentration-time profile and best linear fit (typically from 360 h until the antibody concentrations dropped below the lower limit of quantitation).
NCA parameters reported include: terminal half-life (t1/2,z), the maximum serum concentration (Cmax), area under the serum concentration-time curve from time zero to infinity (AUC0-inf), and apparent serum clearance (CL/F). AUC0-inf was calculated using the linear log-linear trapezoidal method. All parameters were all reported to three significant figures, except for half-life which was reported to two significant figures.

[5] = 280 mg Q4W SC, end of the dosing interval
[6] = 350 mg Q4W SC, end of the dosing interval
[7] = 70 mg (Q2W), end of the dosing interval
[8] = 105 mg (Q2W), end of the dosing interval
[9] = 280 mg (Q2W as printed), end of the dosing interval
[10] = 350 mg (Q2W as printed), end of the dosing interval

B1: 21B12: human anti-PCSK9 monoclonal antibody; light/heavy variable region SEQ ID NO 23/49 (antibody, listed as Homo sapiens, V domains shown)
VH: QVQLVQSGAEVKKPGASVKVSCKASGYTLTSYGISWVRQAPGQGLEWMGWVSFYNGNTNYAQKLQGRGTMTTDPSTSTAYMELRSLRSDDTAVYYCARGYGMDVWGQGTTVTVSS
VL: QSALTQPASVSGSPGQSITISCTGTSSDVGGYNSVSWYQQHPGKAPKLMIYEVSNRPSGVSNRFSGSKSGNTASLTISGLQAEDEADYYCNSYTSTSMVFGGGTKLTVL
In the case of B1, the “LS mean percent increase from baseline in HDL-C” value (“LS mean percent increase” below) [1, 5] is reported as 8.62%, the “LS mean percent reduction from baseline in LDL-C” value [1, 5] is reported as 38.79% and the “LS mean percent reduction from baseline in Lp(a)” value [1, 5] is reported as 27.38%. The “LS mean percent reduction from baseline in VLDL-C” value [1, 5] was 31.02%, the “LS mean percent reduction from baseline in non-HDL-C” value [1, 5] was 39.92% and the “LS mean percent reduction from baseline in total cholesterol” value [1, 5] was 31.03%. For the same molecule, the “LS mean percent reduction from baseline in triglycerides” value [1, 5] was 15.35%, the “LS mean percent increase” value [1, 6] was 4.62% and the “LS mean percent reduction from baseline in LDL-C” value [1, 6] was 40.01%. The “LS mean percent reduction from baseline in Lp(a)” value [1, 6] was 16.04%, the “LS mean percent reduction from baseline in VLDL-C” value [1, 6] was 38.14% and the “LS mean percent reduction from baseline in non-HDL-C” value [1, 6] was 42.86%. The “LS mean percent reduction from baseline in total cholesterol” value [1, 6] was 34.46%, the “LS mean percent reduction from baseline in triglycerides” value [1, 6] was 19.22% and the “LS mean percent increase” value ([1]; 420 mg Q4W SC) was 7.55%. For the same molecule, the “LS mean percent reduction from baseline in LDL-C” value ([1]; 420 mg Q4W SC) was 50.63%, the “LS mean percent reduction from baseline in Lp(a)” value ([1]; 420 mg Q4W SC) was 23.84% and the “LS mean percent reduction from baseline in VLDL-C” value ([1]; 420 mg Q4W SC) was 37.27%. The “LS mean percent reduction from baseline in non-HDL-C” value ([1]; 420 mg Q4W SC) was 53.49%, the “LS mean percent reduction from baseline in total cholesterol” value ([1]; 420 mg Q4W SC) was 42.23% and the “LS mean percent reduction from baseline in triglycerides” value ([1]; 420 mg Q4W SC) was 19.55%. For the same molecule, the “LS mean percent increase” value [2, 7] was 21.17%, the “LS mean percent reduction from baseline in LDL-C” value [2, 7] was 39.22% and the “LS mean percent reduction from baseline in Lp(a)” value [2, 7] was 21.17%. The “LS mean percent reduction from baseline in VLDL-C” value [2, 7] was 14.84%, the “LS mean percent reduction from baseline in non-HDL-C” value [2, 7] was 36.20% and the “LS mean percent reduction from baseline in total cholesterol” value [2, 7] was 26.33%. For the same molecule, the “LS mean percent reduction from baseline in triglycerides” value [2, 7] was 7.20%, the “LS mean percent increase” value [2, 8] was 6.80% and the “LS mean percent reduction from baseline in LDL-C” value [2, 8] was 56.38%. The “LS mean percent reduction from baseline in Lp(a)” value [2, 8] was 33.41%, the “LS mean percent reduction from baseline in VLDL-C” value [2, 8] was 12.75% and the “LS mean percent reduction from baseline in non-HDL-C” value [2, 8] was 51.20%. The “LS mean percent reduction from baseline in total cholesterol” value [2, 8] was 36.91%, the “LS mean percent reduction from baseline in triglycerides” value [2, 8] was 5.65% and the “LS mean percent increase” value ([2]; 140 mg (Q2W)) was 8.43%. For the same molecule, the “LS mean percent reduction from baseline in LDL-C” value ([2]; 140 mg (Q2W)) was 68.76%, the “LS mean percent reduction from baseline in Lp(a)” value ([2]; 140 mg (Q2W)) was 33.87% and the “LS mean percent reduction from baseline in VLDL-C” value ([2]; 140 mg (Q2W)) was 45.14%. For the same molecule, the “LS mean percent reduction from baseline in non-HDL-C” value ([2]; 140 mg (Q2W)) was 64.61%, the “LS mean percent reduction from baseline in total cholesterol” value ([2]; 140 mg (Q2W)) was 46.17% and the “LS mean percent reduction from baseline in triglycerides” value ([2]; 140 mg (Q2W)) was 17.60%. The “LS mean percent increase” value [2, 9] was 2.17%, the “LS mean percent reduction from baseline in Lp(a)” value [2, 9] was 22.54% and the “LS mean percent reduction from baseline in VLDL-C” value [2, 9] was 18.12%. The “LS mean percent reduction from baseline in non-HDL-C” value [2, 9] was 38.89%, the “LS mean percent reduction from baseline in total cholesterol” value [2, 9] was 28.08% and the “LS mean percent reduction from baseline in triglycerides” value [2, 9] was 6.75%. For the same molecule, the “LS mean percent reduction from baseline in LDL-C” value ([2]; 280 mg (Q4W), end of the dosing interval) was 42.62%, the “LS mean percent increase” value [2, 10] was 6.92% and the “LS mean percent reduction from baseline in Lp(a)” value [2, 10] was 29.43%. The “LS mean percent reduction from baseline in VLDL-C” value [2, 10] was 20.89%, the “LS mean percent reduction from baseline in non-HDL-C” value [2, 10] was 50.83% and the “LS mean percent reduction from baseline in total cholesterol” value [2, 10] was 36.04%. For the same molecule, the “LS mean percent reduction from baseline in triglycerides” value [2, 10] was 9.17%, the “LS mean percent reduction from baseline in LDL-C” value ([2]; 350 mg, end of the dosing interval) was 56.84% and the “LS mean percent increase” value ([2]; 420 mg (Q2W as printed)) was 7.42%. For the same molecule, the “LS mean percent reduction from baseline in Lp(a)” value ([2]; 420 mg (Q2W as printed)) was 23.29%, the “LS mean percent reduction from baseline in VLDL-C” value ([2]; 420 mg (Q2W as printed)) was 28.66% and the “LS mean percent reduction from baseline in non-HDL-C” value ([2]; 420 mg (Q2W as printed)) was 48.54%. For the same molecule, the “LS mean percent reduction from baseline in total cholesterol” value ([2]; 420 mg (Q2W as printed)) was 42.76%, the “LS mean percent reduction from baseline in triglycerides” value ([2]; 420 mg (Q2W as printed)) was 11.13% and the “LS mean percent reduction from baseline in LDL-C” value ([2]; 420 mg) was 52.19%. For the same molecule, the “reduction from baseline in LDL-C at week 12” value ([3]; 140 mg Q2W) was ~60%, the “reduction from baseline in LDL-C at week 12” value ([3]; 420 mg Q4W) was ~56% and the “dose dependent reduction from baseline in ApoB” value ([3]; p values <0.001) was 36-53%. For the same molecule, the “dose dependent reduction from baseline in non-HDL-C” value ([3]; p values <0.001) was 36-53%, the “dose dependent reduction from baseline in total cholesterol” value ([3]; p values <0.001) was 25-37% and the half-life [4] was ~40 h.
